Data as given in the supplement of paper PMC12042874.
± gives the uncertainty stated by the source.

Test: amyloid nucleation score (Sup35N fusion, yeast selection) (log enrichment); library NNK3; higher = more nucleation; inactive = no reads after selection
In short: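 DiMSum was used to calculate nucleation scores as log enrichment of output over input reads, centred on the mode score of non-aggregating sequences. Sequences with fewer than 100 input reads were not scored. Input and output came from Illumina sequencing of plasmid inserts in psi-negative yeast expressing peptides of 20 random codons fused to Sup35N, induced 24 hours with 100 μM copper sulfate and then grown 7 days at 30°C on medium lacking adenine and uracil.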

Substance	amyloid nucleation score
SLFRFVDECCMNDFRLRLSC	inactive
SLFSEMSVYMQDYFWVT	inactive
SLFSGVYSFYY	inactive
SLGSMAAVLSPSTAERPANL	inactive
SLGYHLYRHARVCYRMCDIW	inactive
SLHVSTAFVFDIVLSNYLPV	inactive
SLIDRIIVKPKVWTGGKNYP	inactive
SLIIDKGPDVYCSWTVERIT	inactive
SLILENLFVSFLTSKIILGF	inactive
SLILERFNRHCVWGVSVKKH	inactive
SLIYTKYLLMYFIILFLDGG	inactive
SLKCIRSVLNPWAGAALYPS	inactive
SLLFRSLIWSTFDPCSELGP	inactive
SLLFTGHLCLYHTLVCCVFI	1.28 ± 0.11
SLLRFSLGSCWTFSPKGNYL	1.87 ± 0.085
SLLWSLSTYNVRIIHMM	inactive
SLMDVN	inactive
SLMLGYETFFMPCGQDMAKW	inactive
SLMYKCLINSILY	1.97 ± 0.051
SLNNYFYSTNYETSFTLD	inactive
SLRFCWILGENQSGTCSIKR	1.16 ± 0.15
SLSIMYIFTWDGPYIECTFY	2.71 ± 0.069
SLTEQNL	inactive

Substance	amyloid nucleation score
SLTRQLEPADNTDPRCVKSV	inactive
SLVIAQARANRNILLLTVAR	inactive
SLWIYTMSYCLSWNYDCFG	0.669 ± 0.17
SLYRDLHFYSVLGF	inactive
SLYVHRSIANGF	inactive
SMASGRSALIKVV	inactive
SMCCCNILDLNRN	3.11 ± 0.057
SMCGYWRHI	inactive
SMFSLWNS	inactive
SMHARGDL	inactive
SMLGHKIN	inactive
SMQVQMTWLCDRSSLGQRNL	1.61 ± 0.074
SMRSRCNFFTVCSAWLSFWE	inactive
SMWYLVLN	inactive
SNALYCPWHWLIHQVV	inactive
SNCRNQFRERVLIAGVLWVV	inactive
SNESLWVSLIICFVTHWFQI	inactive
SNFLLSSLIHLVPMMSL	inactive
SNGLGLSLGNESANKEA	inactive
SNICKLFCCTESIKSQTRLW	2.61 ± 0.082
SNIRVKFHTPSIGMRCLRTR	inactive
SNLFFSDWTLCCRCIVLVFK	1.6 ± 0.097
SNMVPLVNSIPRKGVVKG	inactive

Substance	amyloid nucleation score
SNPGAMSMCEYGGLFSRWLY	-0.516 ± 0.96
SNPGSALDIMGTNQIYPSQH	inactive
SNPHIILID	inactive
SNSVHISLYIGSPSFA	2.56 ± 0.086
SNVVSTS	inactive
SNVVYMKYRMAVLVTLGICG	inactive
SNYICTYIQKFSIVYCIPSH	1.96 ± 0.08
SPFCFSCIHACWGNEKIRWV	inactive
SPFLCLLLDNEGKVLKVSYK	inactive
SPGGLGFSVNLHCSTYFRPS	1.24 ± 0.14
SPLRRCMCSFDDAKWWMCGE	0.803 ± 0.25
SPWLSAHRSNTGVRTLSLEV	inactive
SPYTVQ	inactive
SQFLLGSQ	inactive
SQGQY	-0.672 ± 1.4
SQSFYLFLGQRSRTY	1.33 ± 0.11
SQSNGFGFFYMMSLVSWVDV	inactive
SRCFLKKYCFLMTSILVRGI	inactive
SRCIFIIVIVSGSYGFSVSN	1.14 ± 0.13
SREDCGGI	inactive
SRFLSIRELRFWYSMNRWGI	inactive
SRGCRTTYRQEWECIQCLKW	inactive
SRIFSGISPDVTDPS	inactive

Substance	amyloid nucleation score
SRILRLRVSSSHVERYFKLF	inactive
SRKALVYGSVKRLSIMSAWV	-0.626 ± 0.96
SRMPCRFM	inactive
SRMSGLWD	inactive
SRNMLH	inactive
SRNVLYLVIKIYFEDFNPLS	inactive
SRPILLLSFCFRCAIC	inactive
SRRFYLYYFCWYSVVMFIHG	inactive
SRRNTFAVGNFNSVLLN	inactive
SRRSCYVIAYELV	inactive
SRRVRAYIRVFGLCKGFAEC	inactive
SRSAY	inactive
SRVSPMFKIRIWNWIPAWAT	inactive
SRVWTISWLNDGVGGRTQAE	inactive
SRVYAKGRKNTSQFCSGGYS	inactive
SRWPGHNYISQYGGYLLIFY	2.02 ± 0.071
SRYLLADSFFRASAVWDVSE	inactive
SSACISCYVSMLWYDVLFKV	0.345 ± 0.23
SSAIYVMRLPQCMAECSRPR	inactive
SSCKDPRRKE	inactive
SSCPYIFYQLST	inactive
SSDDFSWTIRMRRSEFTSHG	inactive
SSDQRASPGWGFLFHKCAQV	inactive

Substance	amyloid nucleation score
SSEPMHLEASIPVFAKE	inactive
SSERGMLVDNVLSHSWMFCI	1.35 ± 0.13
SSEVYQALPPMS	inactive
SSFEFVE	0.698 ± 0.22
SSFPYFTTYVHHVG	inactive
SSKFRRLLGVIMMADLMQVY	inactive
SSLETLSSLFLIRLMELVSR	inactive
SSLLSEWNGGKSYNSVVDEV	inactive
SSMGVVSVRAN	inactive
SSMSSTSALLYMHDNFWCAI	inactive
SSNDVVTSYRILCKVSTKAT	-0.622 ± 0.66
SSNESGLSFGSEFHMLGWHG	0.075 ± 0.35
SSNLFVHHTSFTWASSTPHR	inactive
SSNLNRFSITVFVVERHHQF	inactive
SSNYNLKTLNSISRFFDLES	inactive
SSSCVSSGCDVWA	inactive
SSSDCGNMNTTPRWAGGIGA	inactive
SSSGY	-0.007 ± 1
SSSPVMYCMFLRSRSGRDYK	inactive
SSSTKGFVNVDKSLASW	inactive
SSTGSLIPQPAFSYFCTATP	inactive
SSTYSGCWLVLSIKRFVLIE	inactive
SSVDSSFANCCVISKRNHML	inactive

Substance	amyloid nucleation score
SSVGMARAYL	-1.17 ± 1.9
SSVKRYLAVRWCSESMHTRW	inactive
SSYGSPIIVLNTHSTVGIRI	1.59 ± 0.11
SSYLDTNWRMP	inactive
SSYLPHHISSQRLSSQEPAD	inactive
STCRWLFNNA	0.257 ± 0.16
STGWSMLVFRTRCYLFSFSG	inactive
STGYYVMDVYLTVAYYVDSN	inactive
STITYHLDIEVRKCWVFYMY	inactive
STLILNRLYCFNLISLASLS	0.56 ± 0.2
STLVFPLKFFELCSKD	inactive
STMDSIYQFL	inactive
STQGCLCRYPG	-0.333 ± 0.88
STQNGYRQNEFSRSRMMAPD	inactive
STRRILCIP	-0.381 ± 0.8
STSRGNRFACPCFDYCWFRE	-0.598 ± 1.1
STVSYGVGHQNM	inactive
STWGEFVH	inactive
STWTG	inactive
STYRHLDRSL	inactive
STYVCDGIDG	inactive
SVDDSFLYLYRYKGFCPNF	inactive
SVDVMTGLPTWSYLCDDETR	2.2 ± 0.06

Substance	amyloid nucleation score
SVDWYNFECSIASPF	inactive
SVEMIPDSGLSVRMGFEGLV	inactive
SVGHSFERKWSGCHWEISNL	inactive
SVGRYA	-0.306 ± 0.41
SVGVFVYLKLINLIVLGGRG	inactive
SVHWEVRFYMDRYVLAYAVT	inactive
SVIILYRCSFRGWRSHASGN	1.05 ± 0.1
SVILCFSV	inactive
SVKNWPNVN	inactive
SVKVPWWDCINVRAHMWRMV	inactive
SVLICINCNVEHV	2.44 ± 0.083
SVLRYYSNESRLTVHLSVCI	inactive
SVLYRWGYRTGWEL	0.128 ± 0.52
SVNVHCIREPWVADWTCCRL	1.18 ± 0.16
SVRYVETYSHRTNTVDAAFV	inactive
SVSARSRRLWGSMRIAVTVF	inactive
SVSGRPGEMFSRYYWIYGMY	inactive
SVSLAHFGSRKLVFSG	inactive
SVSLLLRFVILLCTFVQYGW	inactive
SVSNPRNRT	inactive
SVYGACSRFPTNVVYNRSEY	inactive
SVYPVFPTLFNSSYFSGTFG	inactive
